Each block holds one binder with its values, some of them ahead of it.
Columns and labels:
[1] = target: T1, extracellular domain of human CD70 (SEQ ID NO: 89), hCD70-Fc-trimer, ACRO Biosystems (human, UniProt P32970 52-193, chemically biotinylated where the biotinylated form was used); assay: SPR (ProteOn XPR36), target on GLC chip, DARPin as analyte
T1 construct: also called human CD70-Fc-trimer; Bio.CD70
T1 sequence: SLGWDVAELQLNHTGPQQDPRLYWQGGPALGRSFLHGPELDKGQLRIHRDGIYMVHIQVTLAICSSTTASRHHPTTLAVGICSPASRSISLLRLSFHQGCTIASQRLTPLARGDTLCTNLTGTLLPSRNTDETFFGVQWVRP

human serum albumin = target: T2, human serum albumin (human, UniProt P02768 25-609); assay: as above
T2 construct: also called HSA; SA

[2] = target: T3, biotinylated extracellular domain of human CD33 (SEQ ID NO: 87), Fc and Avi tagged (human, UniProt P20138 18-259, biotinylated with BirA-GST (Avi tag)); assay: as above
T3 construct: also called hCD33; human target hCD33

[3] = target: T4, biotinylated extracellular domain of human CD123 (SEQ ID NO: 88), Fc and Avi tagged (human, UniProt P26951 19-303, biotinylated with BirA-GST (Avi tag)); assay: as above
T4 construct: also called hCD123
T4 sequence: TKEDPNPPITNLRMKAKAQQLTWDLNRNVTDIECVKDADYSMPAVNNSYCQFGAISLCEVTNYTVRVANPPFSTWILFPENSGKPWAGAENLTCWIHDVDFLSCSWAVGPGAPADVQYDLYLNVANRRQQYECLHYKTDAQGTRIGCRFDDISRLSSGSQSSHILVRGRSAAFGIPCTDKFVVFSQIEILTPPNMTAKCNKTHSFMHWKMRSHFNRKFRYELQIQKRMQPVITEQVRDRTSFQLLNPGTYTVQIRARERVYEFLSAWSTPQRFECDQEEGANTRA

[4] = target: T5, human scCD3εγ (scCD3εγ_Avi-Bio) (human, biotin on the C-terminal Avi-tag (in vitro, BirA) where the biotinylated form was used); assay: SPR (ProteOn), DARPin on GLC chip, scCD3εγ as analyte
T5 construct: Used for all SPR and HTRF results on human CD3; also called recombinant human CD3; human CD3
T5 chain: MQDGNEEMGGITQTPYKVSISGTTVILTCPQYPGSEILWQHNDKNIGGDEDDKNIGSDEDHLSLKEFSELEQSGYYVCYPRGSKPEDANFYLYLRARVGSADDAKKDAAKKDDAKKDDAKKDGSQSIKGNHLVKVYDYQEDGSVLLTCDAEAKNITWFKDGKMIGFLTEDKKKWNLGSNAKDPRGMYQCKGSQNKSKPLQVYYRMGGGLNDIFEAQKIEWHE
Procedure: Similarly, the binding affinities of two purified ankyrin repeat proteins on recombinant human CD3 target were analyzed as described before. Briefly, DARPin® protein #53, DARPin® protein #54 in NaOAc pH 4.5 was coated on a GLC chip (BioRad) to a level of around 790-1500 resonance units (RU). The interaction of ankyrin repeat protein and human CD3 was then measured by injecting 300 μl running buffer (PBS, pH 7.4 containing 0.005% Tween 20®) containing serial dilutions of human scCD3εγ (56.4 μM), was diluted in PBST (PBS, pH 7.4 containing 0.005% Tween 20®) and covering a concentration range between 300 nM and 19 nM for multi-trace SPR measurements, followed by a running buffer flow for at least 10 minutes at a constant flow rate of 60 μl/min (off-rate measurement).
The regeneration was performed using 30 μl of 10 mM Glycine pH 2. The signals (i.e. resonance unit (RU) values) of the interspots and a reference injection (i.e. injection of running buffer only) were subtracted from the RU traces obtained after injection of CD3 (double-referencing). Binding parameters (KD, on-rate, off-rate) against CD3 were determined by using a standard Langmuir fit model.

[5] = target: T6, human CD3 on primary human pan-T cells (human, UniProt P07766 23-207; P09693 23-182; P04234 22-171; P20963 22-164); assay: Mirrorball cytometry on primary human pan-T cells, 600 µM HSA
T6 construct: whole, on cells; Native complex on T cells isolated from PBMC; also called CD3 on Pan-T cells
Procedure: The determination of T cell binding was performed with primary human T cells using Mirrorball laser scanning imaging cytometry. Therefore, primary T cells were isolated from human peripheral blood mononuclear cells (PBMCs) using a pan-T cell purification kit (Miltenyi Biotec). A titration of DARPin® protein #27, DARPin® protein #28 and DARPin® protein #29 and DARPin® protein #30 were incubated with 50′000 pan-T cells per well in presence of 600 μM human serum albumin (to mimic physiological serum concentration) for 30 minutes at 4° C. Two benchmark T-cell engagers, AMG330 and flotetuzumab were applied as controls, targeting CD33 or CD123. After washing, CD3 binding was detected by 1:100-diluted anti-penta-His Alexa Fluor 488 antibody (Qiagen). After 30 min incubation at 4° C., cells were washed and resuspended in Cytofix fixation buffer (BD Biosciences) and counterstained by 5 μM DRAQ5 (Abcam) for 15 min at RT. Median of mean fluorescence intensities of Alexa Fluor 488 binding on far-red counterstained cells were measured by Mirrorball using Cellista software (SPT Labtech) and data was plotted using GraphPad Prism 8.

T3 sequence (P20138 18-259 R69G): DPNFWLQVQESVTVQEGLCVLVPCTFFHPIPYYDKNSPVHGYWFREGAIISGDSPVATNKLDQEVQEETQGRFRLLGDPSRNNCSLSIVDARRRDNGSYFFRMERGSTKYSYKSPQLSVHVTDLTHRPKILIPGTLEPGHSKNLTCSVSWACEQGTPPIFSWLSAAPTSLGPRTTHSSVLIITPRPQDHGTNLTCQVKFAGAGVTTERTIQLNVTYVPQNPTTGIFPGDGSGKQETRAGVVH
T6 sequence (P07766 23-207, chain 1 of 4): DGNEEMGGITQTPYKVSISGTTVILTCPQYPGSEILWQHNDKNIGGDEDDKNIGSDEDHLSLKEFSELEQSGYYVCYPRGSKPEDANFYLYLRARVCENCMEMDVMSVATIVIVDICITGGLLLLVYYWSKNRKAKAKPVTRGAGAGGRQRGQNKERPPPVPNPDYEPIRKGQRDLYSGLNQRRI
T6 sequence (P09693 23-182, chain 2 of 4): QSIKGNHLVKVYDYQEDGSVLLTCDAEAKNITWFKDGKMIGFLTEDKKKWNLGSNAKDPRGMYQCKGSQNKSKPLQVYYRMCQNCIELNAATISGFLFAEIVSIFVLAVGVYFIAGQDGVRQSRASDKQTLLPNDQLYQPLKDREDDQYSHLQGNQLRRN
T6 sequence (P04234 22-171, chain 3 of 4): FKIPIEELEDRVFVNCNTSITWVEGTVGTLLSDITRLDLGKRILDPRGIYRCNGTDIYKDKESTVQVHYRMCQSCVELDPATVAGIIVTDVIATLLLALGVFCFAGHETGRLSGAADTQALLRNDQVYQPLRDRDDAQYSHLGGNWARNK
T6 sequence (P20963 22-164, chain 4 of 4): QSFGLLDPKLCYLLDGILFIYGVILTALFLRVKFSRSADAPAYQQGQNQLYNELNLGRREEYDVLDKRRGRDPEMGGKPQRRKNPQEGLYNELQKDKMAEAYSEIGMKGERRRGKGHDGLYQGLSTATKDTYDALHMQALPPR
T2 sequence (P02768 25-609 limits assumed): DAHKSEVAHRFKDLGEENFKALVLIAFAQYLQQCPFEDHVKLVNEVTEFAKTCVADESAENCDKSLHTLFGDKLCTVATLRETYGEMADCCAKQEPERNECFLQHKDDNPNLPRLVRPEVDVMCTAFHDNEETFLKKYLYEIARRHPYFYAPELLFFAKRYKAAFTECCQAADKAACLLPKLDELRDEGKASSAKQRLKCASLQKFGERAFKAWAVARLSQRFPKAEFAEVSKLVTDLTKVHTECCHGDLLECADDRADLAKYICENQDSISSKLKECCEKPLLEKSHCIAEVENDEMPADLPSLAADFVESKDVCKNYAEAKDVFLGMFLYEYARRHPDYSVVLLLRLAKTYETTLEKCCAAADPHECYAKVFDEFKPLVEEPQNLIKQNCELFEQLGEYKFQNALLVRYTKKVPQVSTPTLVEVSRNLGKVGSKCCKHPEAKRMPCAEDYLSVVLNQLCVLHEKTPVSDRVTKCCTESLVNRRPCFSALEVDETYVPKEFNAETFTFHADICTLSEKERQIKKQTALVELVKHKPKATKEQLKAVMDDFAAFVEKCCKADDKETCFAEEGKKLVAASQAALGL

B1: DARPin® protein #53 (designed binder)
chain: MRGSHHHHHHDLGKKLLEAARAGQDDEVRELLKAGADVNAKDYFSHTPLHLAARNGHLKIVEVLLKAGADVNAKDFAGKTPLHLAAADGHLEIVEVLLKAGADVNAQDIFGKTPADIAADAGHEDIAEVLQKAAGSPTPTPTTPTPTPTTPTPTPTGSDLGYKLLQAAYDGQLDEVRILLKAGADVNAKDSRGQTPLHYAASIGHLEIVEVLLKAGADVNAKDDHGWTPLHLAAWSGHLEIVEVLLKAGADVNAQDQEGTTPADLAAVQGHQDIAEVLQKAAGSPTPTPTTPTPTPTTPTPTPTGSDLGKKLLEAALEGQLDEVRELLKAGADVNAKDQEGYTPLHLAAALGHLEIVEVLLKAGADVNAKDSIGRTPLHLAAYKGHLEIVEVLLKAGADVNAQDLLGETPADLAAEQGHQDIAEVLQKAAGSPTPTPTTPTPTPTTPTPTPTGSDLGVKLLRAAVHGQLDEVRILLKAGADVNAKDTDGETPLHYAAQFGHLEIVEVLLKAGADVNAKDAYGATPLHWAAWHGHLEIVEVLLKAGADVNAQDVSGATPADLAAKVGHQDIAEVLQKAAGSPTPTPTTPTPTPTTPTPTPTGSDLGQKLLEAAWAGQDDEVRELLKAGADVNAKNSRGWTPLHTAAQTGHLEIFEVLLKAGADVNAKDDKGVTPLHLAAALGHLEIVEVLLKAGADVNAQDSWGTTPADLAAKYGHEDIAEVLQKAA
notes: HSA-CD70-CD123-CD33-CD3
Kd [1]: 0.7 nM | Kd (human serum albumin): 24 nM | Kd [2]: 12 nM | Kd [3]: 8 nM | Kd [4]: 139 nM | koff [4]: 0.0065 s⁻¹ | kon [4]: 48000 M⁻¹ s⁻¹

B2: DARPin® protein #54 (designed binder)
chain: MRGSHHHHHHDLGKKLLEAARAGQDDEVRELLKAGADVNAKDYFSHTPLHLAARNGHLKIVEVLLKAGADVNAKDFAGKTPLHLAAADGHLEIVEVLLKAGADVNAQDIFGKTPADIAADAGHEDIAEVLQKAAGSPTPTPTTPTPTPTTPTPTPTGSDLGKKLLEAARAGQDDEVRELLKAGADVNAKDYFSHTPLHLAARNGHLKIVEVLLKAGADVNAKDFAGKTPLHLAAADGHLEIVEVLLKAGADVNAQDIFGKTPADIAADAGHEDIAEVLQKAAGSPTPTPTTPTPTPTTPTPTPTGSDLGYKLLQAAYDGQLDEVRILLKAGADVNAKDSRGQTPLHYAASIGHLEIVEVLLKAGADVNAKDDHGWTPLHLAAWSGHLEIVEVLLKAGADVNAQDQEGTTPADLAAVQGHQDIAEVLQKAAGSPTPTPTTPTPTPTTPTPTPTGSDLGKKLLEAALEGQLDEVRELLKAGADVNAKDQEGYTPLHLAAALGHLEIVEVLLKAGADVNAKDSIGRTPLHLAAYKGHLEIVEVLLKAGADVNAQDLLGETPADLAAEQGHQDIAEVLQKAAGSPTPTPTTPTPTPTTPTPTPTGSDLGVKLLRAAVHGQLDEVRILLKAGADVNAKDTDGETPLHYAAQFGHLEIVEVLLKAGADVNAKDAYGATPLHWAAWHGHLEIVEVLLKAGADVNAQDVSGATPADLAAKVGHQDIAEVLQKAAGSPTPTPTTPTPTPTTPTPTPTGSDLGQKLLEAAWAGQDDEVRELLKAGADVNAKNSRGWTPLHTAAQTGHLEIFEVLLKAGADVNAKDDKGVTPLHLAAALGHLEIVEVLLKAGADVNAQDSWGTTPADLAAKYGHEDIAEVLQKAA
notes: HSA-HSA-CD70-CD123-CD33-CD3
Kd [1]: 0.61 nM | Kd (human serum albumin): 1.2 nM | Kd [2]: 8.2 nM | Kd [3]: 33 nM | Kd [4]: 129 nM | koff [4]: 0.0067 s⁻¹ | kon [4]: 52000 M⁻¹ s⁻¹

Next, values leading:

EC50 [5]: 1.8 nM
B3: DARPin® protein #30 (designed binder)
chain: DLGYKLLQAAYDGQLDEVRILLKAGADVNAKDSRGQTPLHYAASIGHLEIVEVLLKAGADVNAKDDHGWTPLHLAAWSGHLEIVEVLLKAGADVNAQDQEGTTPADLAAVQGHQDIAEVLQKAAGSPTPTPTTPTPTPTTPTPTPTGSDLGKKLLEAALEGQDDEVRELLKAGADVNAKDQEGYTPLHLAAALGHLEIVEVLLKAGADVNAKDSIGRTPLHLAAYKGHLEIVEVLLKAGADVNAQDLLGETPADLAAEQGHEDIAEVLQKAAGSPTPTPTTPTPTPTTPTPTPTGSDLGVKLLRAAFHGQDDEVRILLAAGADVNAKDTDGETPLHYAAQFGHLEIVEVLLKAGADVNAKDAYGATPLHWAAWHGHLEIVEVLLKAGADVNAQDVSGATPADLAAKVGHEDIAEVLQKAAGSPTPTPTTPTPTPTTPTPTPTGSDLGQKLLEAAWAGQDDEVRELLKAGADVNAKNSRGWTPLHTAAQTGHLEIFEVLLKAGADVNAKDDKGVTPLHLAAALGHLEIVEVLLKAGADVNAQDSWGTTPADLAAKYGHEDIAEVLQKAA
notes: CD70-CD123-CD33-CD3; not shown: His-tag implied by anti-penta-His detection

EC50 [5]: 1.41 nM
B4: DARPin® protein #28 (designed binder)
chain: DLGYKLLQAAYDGQLDEVRILLKAGADVNAKDSRGQTPLHYAASIGHLEIVEVLLKAGADVNAKDDHGWTPLHLAAWSGHLEIVEVLLKAGADVNAQDQEGTTPADLAAVQGHQDIAEVLQKAAGSPTPTPTTPTPTPTTPTPTPTGSDLGWKLLLAASRGQDDEVRILLAAGADVNAKDIDEGYTPLHIAAYYGHLEIVEVLLKAGADVNAKDRYGKTPLHLAAISGHEDIAEVLLKAGADVNAQDDKGDTPADLAADYGHEDIAEVLQKAAGSPTPTPTTPTPTPTTPTPTPTGSDLGQKLLEAAWAGQDDEVRELLKAGADVNAKNSRGWTPLHTAAQTGHLEIFEVLLKAGADVNAKDDKGVTPLHLAAALGHLEIVEVLLKAGADVNAQDSWGTTPADLAAKYGHEDIAEVLQKAA
notes: CD70-CD33-CD3; not shown: His-tag implied by anti-penta-His detection
